From PMC10033316, “Expression of GnT-III decreases chemoresistance via negatively regulating P-glycoprotein expression: Involvement of the TNFR2-NF-κB signaling pathway” (The Journal of Biological Chemistry, 2023)

Molecular target: the molecule itself
Experiment: cross-linking; cells without TNFα stimulation, 1 mM BS3 for 30 min at room temperature on whole cells; RIPA lysate, nonreducing SDS-PAGE, anti-Flag blot

B1: TNF receptor 2 (TNFR2) with a 3x FLAG tag, overexpressed in K562/ADR cells (bisected N-glycans lacking) (receptor, human, UniProt P20333 23-461, looked up)
chain: LPAQVAFTPYAPEPGSTCRLREYYDQTAQMCCSKCSPGQHAKVFCTKTSDTVCDSCEDSTYTQLWNWVPECLSCGSRCSSDQVETQACTREQNRICTCRPGWYCALSKQEGCRLCAPLRKCRPGFGVARPGTETSDVVCKPCAPGTFSNTTSSTDICRPHQICNVVAIPGNASMDAVCTSTSPTRSMAPGAVHLPQPVSTRSQHTQPTPEPSTAPSTSFLLPMGPSPPAEGSTGDFALPVGLIVGVTALGLLIIGVVNCVIMTQVKKKPLCLQREAKVPHLPADKARGTQGPEQQHLLITAPSSSSSSLESSASALDRRAPTRNQPQAPGVEASGAGEARASTGSSDSSPGGHGTQVNVTCIVNVCSSSDHSSQCSSQASSTMGDTDSSPSESPKDEQVPFSKEECAFRSQLETPETLLGSTEEKPLPLGVPDAGMKPS
modifications: N-glycosylated; modification by bisected N-glycans on TNFR2 significantly suppressed in K562/ADR cells
notes: TNF receptor 2 (TNFR2), human, cDNA cloned from K562 cells; Same construct as m1; host K562/ADR cells have very low GnT-III; also called TNFR2-Flag; source: K562/ADR cells infected by virus with the CSIV-TRE-RfA-CMV-KT-TNFR2 plasmid, on the cell surface; not shown: 3x FLAG, C-terminal, kept
- stoichiometry N: 3
